Columns and labels:
Experiment in all cases: cell-based or functional assay
PLCβ3 ΔXY1 = target: T1, PLCβ3 ΔXY1 (Homo sapiens, UniProt Q01970 10-1234, ΔXY1 (residues 471–569))
T1 sequence (looked up): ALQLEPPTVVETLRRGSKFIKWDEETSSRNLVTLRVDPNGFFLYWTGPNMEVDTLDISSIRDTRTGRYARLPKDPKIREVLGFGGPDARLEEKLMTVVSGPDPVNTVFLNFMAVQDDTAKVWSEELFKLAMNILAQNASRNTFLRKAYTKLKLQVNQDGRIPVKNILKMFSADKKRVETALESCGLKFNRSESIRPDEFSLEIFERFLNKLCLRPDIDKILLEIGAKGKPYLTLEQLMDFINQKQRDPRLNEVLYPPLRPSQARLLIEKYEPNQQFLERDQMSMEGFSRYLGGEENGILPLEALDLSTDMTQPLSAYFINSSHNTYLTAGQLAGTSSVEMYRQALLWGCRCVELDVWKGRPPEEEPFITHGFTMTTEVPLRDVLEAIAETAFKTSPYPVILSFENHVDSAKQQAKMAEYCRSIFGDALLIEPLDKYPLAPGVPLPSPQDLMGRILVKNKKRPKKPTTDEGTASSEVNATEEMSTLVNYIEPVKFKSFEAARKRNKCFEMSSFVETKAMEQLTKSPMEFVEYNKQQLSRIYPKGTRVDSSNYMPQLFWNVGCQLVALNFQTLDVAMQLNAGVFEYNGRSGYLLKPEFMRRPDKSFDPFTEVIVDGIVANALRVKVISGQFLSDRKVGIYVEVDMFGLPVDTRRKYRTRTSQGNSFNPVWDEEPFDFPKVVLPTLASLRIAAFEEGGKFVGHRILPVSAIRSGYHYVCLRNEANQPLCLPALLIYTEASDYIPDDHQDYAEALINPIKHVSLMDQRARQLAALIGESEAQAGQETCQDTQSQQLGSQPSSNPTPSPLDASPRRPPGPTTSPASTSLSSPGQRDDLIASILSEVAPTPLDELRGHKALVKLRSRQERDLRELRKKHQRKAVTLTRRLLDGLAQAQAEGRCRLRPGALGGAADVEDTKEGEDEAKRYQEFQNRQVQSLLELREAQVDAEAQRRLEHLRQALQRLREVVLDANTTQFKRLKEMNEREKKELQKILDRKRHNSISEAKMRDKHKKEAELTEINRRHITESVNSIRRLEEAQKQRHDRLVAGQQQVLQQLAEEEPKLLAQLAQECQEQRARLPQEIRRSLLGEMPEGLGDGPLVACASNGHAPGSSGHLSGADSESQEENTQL

PLCβ3 ΔXY2 = target: T2, PLCβ3 ΔXY2 (Homo sapiens, UniProt Q01970 10-1234, ΔXY2 (residues 471–584))
T2 sequence (looked up): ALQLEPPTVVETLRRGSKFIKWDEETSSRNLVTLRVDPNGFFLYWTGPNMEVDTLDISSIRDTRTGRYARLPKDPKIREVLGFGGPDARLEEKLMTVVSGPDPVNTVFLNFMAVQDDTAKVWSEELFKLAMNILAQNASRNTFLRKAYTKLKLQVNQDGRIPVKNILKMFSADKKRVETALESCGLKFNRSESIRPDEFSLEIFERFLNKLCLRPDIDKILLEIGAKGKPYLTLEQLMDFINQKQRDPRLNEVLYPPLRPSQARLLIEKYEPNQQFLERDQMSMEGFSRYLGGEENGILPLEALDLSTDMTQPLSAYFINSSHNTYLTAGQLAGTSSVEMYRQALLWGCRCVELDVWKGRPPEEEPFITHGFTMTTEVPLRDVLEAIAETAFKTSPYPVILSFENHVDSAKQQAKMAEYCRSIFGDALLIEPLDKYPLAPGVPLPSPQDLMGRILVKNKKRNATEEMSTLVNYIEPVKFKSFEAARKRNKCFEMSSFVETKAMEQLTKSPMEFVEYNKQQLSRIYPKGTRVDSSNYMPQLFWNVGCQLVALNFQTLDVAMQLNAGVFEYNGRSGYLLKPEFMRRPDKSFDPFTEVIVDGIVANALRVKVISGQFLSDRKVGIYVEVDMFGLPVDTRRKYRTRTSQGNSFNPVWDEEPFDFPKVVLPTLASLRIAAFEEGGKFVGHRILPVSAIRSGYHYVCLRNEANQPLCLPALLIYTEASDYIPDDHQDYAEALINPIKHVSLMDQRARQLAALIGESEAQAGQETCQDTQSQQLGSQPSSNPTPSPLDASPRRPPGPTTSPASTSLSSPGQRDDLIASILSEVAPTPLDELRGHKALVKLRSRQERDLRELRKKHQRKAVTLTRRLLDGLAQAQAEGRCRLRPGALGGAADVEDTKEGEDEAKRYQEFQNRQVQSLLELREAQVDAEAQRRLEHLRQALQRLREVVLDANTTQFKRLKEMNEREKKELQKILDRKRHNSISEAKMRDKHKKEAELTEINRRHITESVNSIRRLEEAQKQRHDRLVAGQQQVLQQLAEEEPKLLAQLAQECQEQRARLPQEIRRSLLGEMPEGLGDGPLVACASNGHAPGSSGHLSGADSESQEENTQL

PLCβ3-Δ892 ΔXY1 = target: T3, PLCβ3-Δ892 ΔXY1 (Homo sapiens, UniProt Q01970 10-892, ΔXY1 (residues 471–569))
T3 sequence (looked up): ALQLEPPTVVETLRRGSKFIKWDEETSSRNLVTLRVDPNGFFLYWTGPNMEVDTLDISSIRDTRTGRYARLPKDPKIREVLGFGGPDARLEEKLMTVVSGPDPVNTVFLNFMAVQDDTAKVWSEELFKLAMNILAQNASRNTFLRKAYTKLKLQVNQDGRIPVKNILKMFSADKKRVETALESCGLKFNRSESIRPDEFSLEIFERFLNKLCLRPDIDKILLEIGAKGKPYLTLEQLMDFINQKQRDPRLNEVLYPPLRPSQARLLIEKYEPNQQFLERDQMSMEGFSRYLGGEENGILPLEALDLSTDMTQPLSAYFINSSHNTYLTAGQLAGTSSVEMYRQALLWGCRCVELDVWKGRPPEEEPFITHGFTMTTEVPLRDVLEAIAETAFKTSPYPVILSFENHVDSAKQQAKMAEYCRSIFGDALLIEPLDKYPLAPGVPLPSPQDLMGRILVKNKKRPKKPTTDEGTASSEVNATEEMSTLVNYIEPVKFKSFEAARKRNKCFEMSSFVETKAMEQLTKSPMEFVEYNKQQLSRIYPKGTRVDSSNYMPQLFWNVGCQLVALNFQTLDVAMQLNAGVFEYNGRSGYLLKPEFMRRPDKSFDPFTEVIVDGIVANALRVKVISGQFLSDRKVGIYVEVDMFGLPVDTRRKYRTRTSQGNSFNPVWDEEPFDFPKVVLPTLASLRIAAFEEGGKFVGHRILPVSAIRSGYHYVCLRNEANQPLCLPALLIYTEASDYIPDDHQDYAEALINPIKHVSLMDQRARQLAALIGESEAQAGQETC

x-fold maximum activity over basal (complex against the PLCβ3 variant alone) (PLCβ3 ΔXY1): 4 x-fold
x-fold maximum activity over basal (complex against the PLCβ3 variant alone) (PLCβ3 ΔXY2): 2 x-fold
x-fold maximum activity over basal (complex against the PLCβ3 variant alone) (PLCβ3-Δ892 ΔXY1): 2 x-fold
B1: Activated Gαq (Gαq·GDP-ALF4^−) (natural protein, murine, UniProt P21279 7-359, looked up)
chain: MACCLSEEAKEARRINDEIERQLRRDKRDARRELKLLLLGTGESGKSTFIKQMRIIHGSGYSDEDKRGFTKLVYQNIFTAMQAMIRAMDTLKIPYKYEHNKAHAQLVREVDVEKVSAFENPYVDAIKSLWNDPGIQECYDRRREYQLSDSTKYYLNDLDRVADPSYLPTQQDVLRVRVPTTGIIEYPFDLQSVIFRMVDVGGQRSERRKWIHCFENVTSIMFLVALSEYDQVLVESDNENRMEESKALFRTIITYPWFQNSSVILFLNKKDLLEEKIMYSHLVDYFPEYDGPQRDAQAAREFILKMFVDLNPDSDKIIYSHFTCATDTENIRFVFAAVKDTILQLNLKEYNLV
